Measured values reported in paper PMC3376577, “A Reusable Impedimetric Aptasensor for Detection of Thrombin Employing a Graphite-Epoxy Composite Electrode”.

What was measured:
serum albumin = serum albumin (UniProt P02768 25-609); experiment: electrochemical impedance spectroscopy; albumin 5,000 mg/dL; Rct did not increase (slight decrease); PBS (187 mM NaCl, 2.7 mM KCl, 8.1 mM Na2HPO4, 1.76 mM KH2PO4, pH 7.0), room temperature; aptamer 1 uM adsorbed on graphite-epoxy electrode, PEG blocking; settings: G-quadruplex (quadriplex)
thrombin = thrombin (UniProt P00734;P00734 328-363;364-622); experiment: electrochemical impedance spectroscopy; linear response 7.5-75 pM, detection limit 4.5 pM; PEG-blocked electrode, [Fe(CN)6]3-/4- probe; complex broken by 2.0 M NaCl at 42 C; PBS (187 mM NaCl, 2.7 mM KCl, 8.1 mM Na2HPO4, 1.76 mM KH2PO4, pH 7.0), room temperature; aptamer 1 uM adsorbed on graphite-epoxy electrode, PEG blocking

serum albumin, sequence (P02768 25-609): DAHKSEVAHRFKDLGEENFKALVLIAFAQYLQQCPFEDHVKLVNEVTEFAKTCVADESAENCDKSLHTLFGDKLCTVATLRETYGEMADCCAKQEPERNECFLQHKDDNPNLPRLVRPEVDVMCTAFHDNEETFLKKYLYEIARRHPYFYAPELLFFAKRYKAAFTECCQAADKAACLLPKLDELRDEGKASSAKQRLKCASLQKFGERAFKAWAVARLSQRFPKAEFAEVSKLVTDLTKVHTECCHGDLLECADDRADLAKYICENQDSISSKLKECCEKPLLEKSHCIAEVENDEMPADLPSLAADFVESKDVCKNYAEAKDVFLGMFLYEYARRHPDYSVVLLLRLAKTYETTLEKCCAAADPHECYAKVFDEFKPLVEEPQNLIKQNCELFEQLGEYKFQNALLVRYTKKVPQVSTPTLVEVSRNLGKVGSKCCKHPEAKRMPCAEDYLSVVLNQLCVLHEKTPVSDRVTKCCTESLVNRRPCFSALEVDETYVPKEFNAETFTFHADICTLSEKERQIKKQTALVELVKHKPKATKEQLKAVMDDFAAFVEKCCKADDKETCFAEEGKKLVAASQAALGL

## GGTTGGTGTGGTTGG (structured_DNA) [AptThr]
Serum albumin
  binding result: no binding
thrombin
  binding result: binds
